Values joined by “and” are separate entries in the source; they are usually repeats but may differ in a detail not shown here. Equal values may be shown once.
Tests used:
Assay in all cases: BLI
Conditions in all cases: both partners purified
[1] = biological target: T1, CoV2 Parental S-RBD fused with human Fc (SARS-CoV-2, UniProt P0DTC2)
T1 construct: also called Parental RBD; RBD-Fc

[2] = biological target: T2, CoV2 Omicron S-RBD with human Fc (SARS-CoV-2, UniProt P0DTC2)
T2 construct: also called Omicron RBD; RBD-Fc (Omicron)

[3] = biological target: T3, CoV2 Parental S-RBD fused with human Fc (SARS-CoV-2, UniProt P0DTC2)
T3 construct: also called Parental RBD; RBD-Fc (Parental)

B1: shACE2 N90A/N322A double glycan deletant (domain or fragment)
chain: STIEEQAKTFLDKFNHEAEDLFYQSSLASWNYNTNITEENVQNMNNAGDKWSAFLKEQSTLAQMYPLQEIQALTVKLQLQALQQNGSSVLSEDKSKRLNTILNTMSTIYSTGKVCNPDNPQECLLLEPGLNEIMANSLDYNERLWAWESWRSEVGKQLRPLYEEYVVLKNEMARANHYEDYGDYWRGDYEVNGVDGYDYSRGQLIEDVEHTFEEIKPLYEHLHAYVRAKLMNAYPSYISPIGCLPAHLLGDMWGRFWTNLYSLTVPFGQKPNIDVTDAMVDQAWDAQRIFKEAEKFFVSVGLPAMTQGFWENSMLTDPGNVQKAVCHPTAWDLGKGDFRILMCTKVTMDDFLTAHHEMGHIQYDMAYAAQPFLLRNGANEGFHEAVGEIMSLSAATPKHLKSIGLLSPDFQEDNETEINFLLKQALTIVGTLPFTYMLEKWRWMVFKGEIPKDQWMKKWWEMKREIVGVVEPVPHDETYCDPASLFHVSNDYSFIRYYTRTLYQFQFQEALCQAAKHEGPLHKCDISNSTEAGQKLFNMLRLGKSEPWTLALENVVGAKNMNVRPLLNYFEPLFTWLKDQNKNSFVGWSTDWSPYADQSIK
notes: also called N90A/N322A double deletant
[1]
  Kd: 115 nM

B2: soluble hACE2 N90S/N322S (receptor)
chain: STIEEQAKTFLDKFNHEAEDLFYQSSLASWNYNTNITEENVQNMNNAGDKWSAFLKEQSTLAQMYPLQEIQSLTVKLQLQALQQNGSSVLSEDKSKRLNTILNTMSTIYSTGKVCNPDNPQECLLLEPGLNEIMANSLDYNERLWAWESWRSEVGKQLRPLYEEYVVLKNEMARANHYEDYGDYWRGDYEVNGVDGYDYSRGQLIEDVEHTFEEIKPLYEHLHAYVRAKLMNAYPSYISPIGCLPAHLLGDMWGRFWTNLYSLTVPFGQKPNIDVTDAMVDQAWDAQRIFKEAEKFFVSVGLPSMTQGFWENSMLTDPGNVQKAVCHPTAWDLGKGDFRILMCTKVTMDDFLTAHHEMGHIQYDMAYAAQPFLLRNGANEGFHEAVGEIMSLSAATPKHLKSIGLLSPDFQEDNETEINFLLKQALTIVGTLPFTYMLEKWRWMVFKGEIPKDQWMKKWWEMKREIVGVVEPVPHDETYCDPASLFHVSNDYSFIRYYTRTLYQFQFQEALCQAAKHEGPLHKCDISNSTEAGQKLFNMLRLGKSEPWTLALENVVGAKNMNVRPLLNYFEPLFTWLKDQNKNSFVGWSTDWSPYADQSIK
notes: also called double glycan deletant
[2]
  Kd: 38.2 nM and 38.5 nM and 38.4 nM
[3]
  Kd: 123 nM and 126 nM and 125 nM

B3: soluble hACE2 N53A/N90A (receptor)
chain: STIEEQAKTFLDKFNHEAEDLFYQSSLASWNYNTAITEENVQNMNNAGDKWSAFLKEQSTLAQMYPLQEIQALTVKLQLQALQQNGSSVLSEDKSKRLNTILNTMSTIYSTGKVCNPDNPQECLLLEPGLNEIMANSLDYNERLWAWESWRSEVGKQLRPLYEEYVVLKNEMARANHYEDYGDYWRGDYEVNGVDGYDYSRGQLIEDVEHTFEEIKPLYEHLHAYVRAKLMNAYPSYISPIGCLPAHLLGDMWGRFWTNLYSLTVPFGQKPNIDVTDAMVDQAWDAQRIFKEAEKFFVSVGLPNMTQGFWENSMLTDPGNVQKAVCHPTAWDLGKGDFRILMCTKVTMDDFLTAHHEMGHIQYDMAYAAQPFLLRNGANEGFHEAVGEIMSLSAATPKHLKSIGLLSPDFQEDNETEINFLLKQALTIVGTLPFTYMLEKWRWMVFKGEIPKDQWMKKWWEMKREIVGVVEPVPHDETYCDPASLFHVSNDYSFIRYYTRTLYQFQFQEALCQAAKHEGPLHKCDISNSTEAGQKLFNMLRLGKSEPWTLALENVVGAKNMNVRPLLNYFEPLFTWLKDQNKNSFVGWSTDWSPYADQSIK
notes: as for B2
[2]
  Kd: 83.2 nM and 116 nM and 99.5 nM
[3]
  Kd: 220 nM and 246 nM and 233 nM

B4: soluble hACE2 N53A/N90A/N322A (receptor)
chain: STIEEQAKTFLDKFNHEAEDLFYQSSLASWNYNTAITEENVQNMNNAGDKWSAFLKEQSTLAQMYPLQEIQALTVKLQLQALQQNGSSVLSEDKSKRLNTILNTMSTIYSTGKVCNPDNPQECLLLEPGLNEIMANSLDYNERLWAWESWRSEVGKQLRPLYEEYVVLKNEMARANHYEDYGDYWRGDYEVNGVDGYDYSRGQLIEDVEHTFEEIKPLYEHLHAYVRAKLMNAYPSYISPIGCLPAHLLGDMWGRFWTNLYSLTVPFGQKPNIDVTDAMVDQAWDAQRIFKEAEKFFVSVGLPAMTQGFWENSMLTDPGNVQKAVCHPTAWDLGKGDFRILMCTKVTMDDFLTAHHEMGHIQYDMAYAAQPFLLRNGANEGFHEAVGEIMSLSAATPKHLKSIGLLSPDFQEDNETEINFLLKQALTIVGTLPFTYMLEKWRWMVFKGEIPKDQWMKKWWEMKREIVGVVEPVPHDETYCDPASLFHVSNDYSFIRYYTRTLYQFQFQEALCQAAKHEGPLHKCDISNSTEAGQKLFNMLRLGKSEPWTLALENVVGAKNMNVRPLLNYFEPLFTWLKDQNKNSFVGWSTDWSPYADQSIK
notes: also called N53A/N90A/N322A triple deletant
[2]
  Kd: 67.1 nM and 75.5 nM and 71.3 nM
[3]
  Kd: 262 nM and 246 nM

B5: soluble hACE2 N53S/N90S (receptor)
chain: STIEEQAKTFLDKFNHEAEDLFYQSSLASWNYNTSITEENVQNMNNAGDKWSAFLKEQSTLAQMYPLQEIQSLTVKLQLQALQQNGSSVLSEDKSKRLNTILNTMSTIYSTGKVCNPDNPQECLLLEPGLNEIMANSLDYNERLWAWESWRSEVGKQLRPLYEEYVVLKNEMARANHYEDYGDYWRGDYEVNGVDGYDYSRGQLIEDVEHTFEEIKPLYEHLHAYVRAKLMNAYPSYISPIGCLPAHLLGDMWGRFWTNLYSLTVPFGQKPNIDVTDAMVDQAWDAQRIFKEAEKFFVSVGLPNMTQGFWENSMLTDPGNVQKAVCHPTAWDLGKGDFRILMCTKVTMDDFLTAHHEMGHIQYDMAYAAQPFLLRNGANEGFHEAVGEIMSLSAATPKHLKSIGLLSPDFQEDNETEINFLLKQALTIVGTLPFTYMLEKWRWMVFKGEIPKDQWMKKWWEMKREIVGVVEPVPHDETYCDPASLFHVSNDYSFIRYYTRTLYQFQFQEALCQAAKHEGPLHKCDISNSTEAGQKLFNMLRLGKSEPWTLALENVVGAKNMNVRPLLNYFEPLFTWLKDQNKNSFVGWSTDWSPYADQSIK
notes: as for B2
[2]
  Kd: 101 nM and 123 nM and 112 nM
[3]
  Kd: 223 nM and 226 nM and 224 nM

B6: soluble hACE2 N53A/N322A (receptor)
chain: STIEEQAKTFLDKFNHEAEDLFYQSSLASWNYNTAITEENVQNMNNAGDKWSAFLKEQSTLAQMYPLQEIQNLTVKLQLQALQQNGSSVLSEDKSKRLNTILNTMSTIYSTGKVCNPDNPQECLLLEPGLNEIMANSLDYNERLWAWESWRSEVGKQLRPLYEEYVVLKNEMARANHYEDYGDYWRGDYEVNGVDGYDYSRGQLIEDVEHTFEEIKPLYEHLHAYVRAKLMNAYPSYISPIGCLPAHLLGDMWGRFWTNLYSLTVPFGQKPNIDVTDAMVDQAWDAQRIFKEAEKFFVSVGLPAMTQGFWENSMLTDPGNVQKAVCHPTAWDLGKGDFRILMCTKVTMDDFLTAHHEMGHIQYDMAYAAQPFLLRNGANEGFHEAVGEIMSLSAATPKHLKSIGLLSPDFQEDNETEINFLLKQALTIVGTLPFTYMLEKWRWMVFKGEIPKDQWMKKWWEMKREIVGVVEPVPHDETYCDPASLFHVSNDYSFIRYYTRTLYQFQFQEALCQAAKHEGPLHKCDISNSTEAGQKLFNMLRLGKSEPWTLALENVVGAKNMNVRPLLNYFEPLFTWLKDQNKNSFVGWSTDWSPYADQSIK
notes: as for B2
[2]
  Kd: 164 nM and 139 nM and 151 nM
[3]
  Kd: 411 nM and 395 nM and 403 nM

B7: soluble hACE2 N90A/N322A (receptor)
chain: STIEEQAKTFLDKFNHEAEDLFYQSSLASWNYNTNITEENVQNMNNAGDKWSAFLKEQSTLAQMYPLQEIQALTVKLQLQALQQNGSSVLSEDKSKRLNTILNTMSTIYSTGKVCNPDNPQECLLLEPGLNEIMANSLDYNERLWAWESWRSEVGKQLRPLYEEYVVLKNEMARANHYEDYGDYWRGDYEVNGVDGYDYSRGQLIEDVEHTFEEIKPLYEHLHAYVRAKLMNAYPSYISPIGCLPAHLLGDMWGRFWTNLYSLTVPFGQKPNIDVTDAMVDQAWDAQRIFKEAEKFFVSVGLPAMTQGFWENSMLTDPGNVQKAVCHPTAWDLGKGDFRILMCTKVTMDDFLTAHHEMGHIQYDMAYAAQPFLLRNGANEGFHEAVGEIMSLSAATPKHLKSIGLLSPDFQEDNETEINFLLKQALTIVGTLPFTYMLEKWRWMVFKGEIPKDQWMKKWWEMKREIVGVVEPVPHDETYCDPASLFHVSNDYSFIRYYTRTLYQFQFQEALCQAAKHEGPLHKCDISNSTEAGQKLFNMLRLGKSEPWTLALENVVGAKNMNVRPLLNYFEPLFTWLKDQNKNSFVGWSTDWSPYADQSIK
notes: as for B1
[2]
  Kd: 36.5 nM and 36 nM and 36.3 nM
[3]
  Kd: 127 nM and 103 nM

B8: soluble hACE2 N53S/N90S/N322S (receptor)
chain: STIEEQAKTFLDKFNHEAEDLFYQSSLASWNYNTSITEENVQNMNNAGDKWSAFLKEQSTLAQMYPLQEIQSLTVKLQLQALQQNGSSVLSEDKSKRLNTILNTMSTIYSTGKVCNPDNPQECLLLEPGLNEIMANSLDYNERLWAWESWRSEVGKQLRPLYEEYVVLKNEMARANHYEDYGDYWRGDYEVNGVDGYDYSRGQLIEDVEHTFEEIKPLYEHLHAYVRAKLMNAYPSYISPIGCLPAHLLGDMWGRFWTNLYSLTVPFGQKPNIDVTDAMVDQAWDAQRIFKEAEKFFVSVGLPSMTQGFWENSMLTDPGNVQKAVCHPTAWDLGKGDFRILMCTKVTMDDFLTAHHEMGHIQYDMAYAAQPFLLRNGANEGFHEAVGEIMSLSAATPKHLKSIGLLSPDFQEDNETEINFLLKQALTIVGTLPFTYMLEKWRWMVFKGEIPKDQWMKKWWEMKREIVGVVEPVPHDETYCDPASLFHVSNDYSFIRYYTRTLYQFQFQEALCQAAKHEGPLHKCDISNSTEAGQKLFNMLRLGKSEPWTLALENVVGAKNMNVRPLLNYFEPLFTWLKDQNKNSFVGWSTDWSPYADQSIK
notes: also called triple glycan deletant
[2]
  Kd: 64.7 nM and 72.7 nM and 68.7 nM
[3]
  Kd: 178 nM and 219 nM and 198 nM

B9: soluble hACE2 N53S/N322S (receptor)
chain: STIEEQAKTFLDKFNHEAEDLFYQSSLASWNYNTSITEENVQNMNNAGDKWSAFLKEQSTLAQMYPLQEIQNLTVKLQLQALQQNGSSVLSEDKSKRLNTILNTMSTIYSTGKVCNPDNPQECLLLEPGLNEIMANSLDYNERLWAWESWRSEVGKQLRPLYEEYVVLKNEMARANHYEDYGDYWRGDYEVNGVDGYDYSRGQLIEDVEHTFEEIKPLYEHLHAYVRAKLMNAYPSYISPIGCLPAHLLGDMWGRFWTNLYSLTVPFGQKPNIDVTDAMVDQAWDAQRIFKEAEKFFVSVGLPSMTQGFWENSMLTDPGNVQKAVCHPTAWDLGKGDFRILMCTKVTMDDFLTAHHEMGHIQYDMAYAAQPFLLRNGANEGFHEAVGEIMSLSAATPKHLKSIGLLSPDFQEDNETEINFLLKQALTIVGTLPFTYMLEKWRWMVFKGEIPKDQWMKKWWEMKREIVGVVEPVPHDETYCDPASLFHVSNDYSFIRYYTRTLYQFQFQEALCQAAKHEGPLHKCDISNSTEAGQKLFNMLRLGKSEPWTLALENVVGAKNMNVRPLLNYFEPLFTWLKDQNKNSFVGWSTDWSPYADQSIK
notes: as for B2
[2]
  Kd: 163 nM and 162 nM (2×)
[3]
  Kd: 438 nM and 457 nM and 448 nM
